Results published in paper PMC6711944, “Structural insights into the species preference of the influenza B virus NS1 protein in ISG15 binding” (Protein & Cell, 2018).

T1: NS1B-NTR (1-103), N-terminal region of the influenza B virus NS1 protein (influenza B virus, UniProt P03502 1-103)
T1 construct: not shown: GST, N-terminal, cleaved
T1 sequence: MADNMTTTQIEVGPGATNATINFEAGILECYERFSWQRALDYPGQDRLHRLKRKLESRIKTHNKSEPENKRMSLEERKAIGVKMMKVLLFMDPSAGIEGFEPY


Experiments:
[1] = target: T1, NS1B-NTR (1-103), N-terminal region of …; test: ITC; about 0.5 mM ISG15 injected into 250 ul of 0.05 mM NS1B-NTR in the cell, 20 aliquots of 2 ul; 25 °C; 10 mM HEPES-sodium, 500 mM NaCl, pH 7.2; MicroCal iTC200; 'one set of sites' fitting model; conditions: both partners purified
[2] = target: the molecule itself; test: crystal structure; crystal structures of NS1B-NTR in complex with mISG15, cISG15 or bISG15
[3] = target: T2, hISG15-L10A (human, UniProt P05161 1-157, L10A); test: ITC; isothermal titration calorimetry of NS1B-NTR and ISG15 proteins; which was titrated and the conditions are not told in the text shown; conditions: both partners purified
T2 construct: Mutant of m2

[4] = target: T3, bovine ISG15 (bovine, UniProt O02741 1-154); test: as above; conditions: both partners purified
T3 construct: also called bISG15

[5] = target: T4, canine ISG15 (canine, UniProt A0A8I3P342 1-174); test: as above; conditions: both partners purified
T4 construct: also called cISG15

[6] = target: T5, hISG15 with the first two linker residues (Asp76, Lys77) converted to alanine (human, UniProt P05161 1-157, Asp76 to alanine | Lys77 to alanine); test: as above; conditions: both partners purified
T5 construct: also called the mutated hISG15

[7] = target: T6, murine ISG15 (murine, UniProt Q64339 1-155); test: as above; conditions: both partners purified
T6 construct: also called mISG15

[8] = target: T7, human ISG15 (human, UniProt P05161 1-157); test: as above; conditions: both partners purified
T7 construct: also called hISG15
T7 sequence (P05161 1-157): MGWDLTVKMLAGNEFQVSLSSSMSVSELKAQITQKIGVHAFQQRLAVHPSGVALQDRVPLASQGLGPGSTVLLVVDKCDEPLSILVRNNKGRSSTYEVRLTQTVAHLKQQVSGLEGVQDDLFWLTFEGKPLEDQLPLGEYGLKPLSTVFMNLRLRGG

T4 sequence (A0A8I3P342 entry or part of it): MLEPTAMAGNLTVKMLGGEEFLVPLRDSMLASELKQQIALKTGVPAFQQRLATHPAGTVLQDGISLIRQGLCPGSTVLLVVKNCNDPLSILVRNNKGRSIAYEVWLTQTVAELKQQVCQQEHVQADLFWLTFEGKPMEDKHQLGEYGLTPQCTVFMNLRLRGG
T5 sequence (P05161 other isoform, or with tags, fused parts or gaps with the stated changes): as the sequence (P05161 1-157) above, with D76A, K77A counted along it
T2 sequence (P05161 1-157 L10A): as the sequence (P05161 1-157) above, with L10A counted along it

Row | Binder | Kd [1] | stoichiometry N [2] | Kd [3] | Kd [4] | stoichiometry N [4] | Kd [5] | stoichiometry N [5] | Kd [6] | Kd [7] | stoichiometry N [7] | Kd [8] | stoichiometry N [8]
1 | mISG15-Q74A-N75A (natural protein, not shown: GST, N-terminal, cleaved) MAWDLKVKMLGGNDFLVSVTNSMTVSELKKQIAQKIGVPAFQQRLAHQTAVLQDGLTLSSLGLGPSSTVMLVVAASSEPLSILVRNERGHSNIYEVFLTQTVDTLKKKVSQREQVHEDQFWLSFEGRPMEDKELLGEYGLKPQCTVIKHLRLRGG | 6 µM | – | – | – | – | – | – | – | – | – | – | –
2 | bISG15-Q76A-N77A (natural protein, not shown: GST, N-terminal, cleaved) MGGDLTVKMLGGQEILVPLRDSMTVSELKQFIAQKINVPAFQQRLAHLDSREVLQEGVPLVLQGLRAGSTVLLVVAASISILVRNDKGRSSPYEVQLKQTVAELKQQVCQKERVQADQFWLSFEGRPMDDEHPLEEYGLMKGCTVFMNLRLRGG | 10 µM | – | – | – | – | – | – | – | – | – | – | –
3 | NS1B-NTR, containing the 103 N-terminal residues of NS1B (influenza B virus NS1 protein) (domain or fragment, the same region as in the cited hISG15/NS1B-NTR structure PDB 3RT3) MADNMTTTQIEVGPGATNATINFEAGILECYERFSWQRALDYPGQDRLHRLKRKLESRIKTHNKSEPENKRMSLEERKAIGVKMMKVLLFMDPSAGIEGFEPY | – | 2 | 17 µM | 12 µM | 1 | 34 µM | 1 | 5 µM | 13 µM | 1 | 0.28 µM | 1
